B1: CCAAT/enhancer-binding protein beta (Homo sapiens), P17676-2 (parent)
chain: MEVANFYYEADCLAAAYGGKAAPAAPPAARPGPRPPAGELGSIGDHERAIDFSPYLEPLGAPQAPAPATATDTFEAAPPAPAPAPASSGQHHDFLSDLFSDDYGGKNCKKPAEYGYVSLGRLGAAKGALHPGCFAPLHPPPPPPPPPAELKAEPGFEPADCKRKEEAGAPGGGAGMAAGFPYALRAYLGYQAVPSGSSGSLSTSSSSSPPGTPSPADAKAPPTACYAGAAPAPSQVKSKAKKTVDKHSDEYKIRRERNNIAVRKSRDKAKMRNLETQHKVLELTAENERLQKKVEQLSRELSTLRNLFKQLPEPLLASSGHC

Variants of: B1
Conditions: with hdac4_human HDAC4, P56524
hdac4_human HDAC4, P56524, sequence (P56524 whole entry): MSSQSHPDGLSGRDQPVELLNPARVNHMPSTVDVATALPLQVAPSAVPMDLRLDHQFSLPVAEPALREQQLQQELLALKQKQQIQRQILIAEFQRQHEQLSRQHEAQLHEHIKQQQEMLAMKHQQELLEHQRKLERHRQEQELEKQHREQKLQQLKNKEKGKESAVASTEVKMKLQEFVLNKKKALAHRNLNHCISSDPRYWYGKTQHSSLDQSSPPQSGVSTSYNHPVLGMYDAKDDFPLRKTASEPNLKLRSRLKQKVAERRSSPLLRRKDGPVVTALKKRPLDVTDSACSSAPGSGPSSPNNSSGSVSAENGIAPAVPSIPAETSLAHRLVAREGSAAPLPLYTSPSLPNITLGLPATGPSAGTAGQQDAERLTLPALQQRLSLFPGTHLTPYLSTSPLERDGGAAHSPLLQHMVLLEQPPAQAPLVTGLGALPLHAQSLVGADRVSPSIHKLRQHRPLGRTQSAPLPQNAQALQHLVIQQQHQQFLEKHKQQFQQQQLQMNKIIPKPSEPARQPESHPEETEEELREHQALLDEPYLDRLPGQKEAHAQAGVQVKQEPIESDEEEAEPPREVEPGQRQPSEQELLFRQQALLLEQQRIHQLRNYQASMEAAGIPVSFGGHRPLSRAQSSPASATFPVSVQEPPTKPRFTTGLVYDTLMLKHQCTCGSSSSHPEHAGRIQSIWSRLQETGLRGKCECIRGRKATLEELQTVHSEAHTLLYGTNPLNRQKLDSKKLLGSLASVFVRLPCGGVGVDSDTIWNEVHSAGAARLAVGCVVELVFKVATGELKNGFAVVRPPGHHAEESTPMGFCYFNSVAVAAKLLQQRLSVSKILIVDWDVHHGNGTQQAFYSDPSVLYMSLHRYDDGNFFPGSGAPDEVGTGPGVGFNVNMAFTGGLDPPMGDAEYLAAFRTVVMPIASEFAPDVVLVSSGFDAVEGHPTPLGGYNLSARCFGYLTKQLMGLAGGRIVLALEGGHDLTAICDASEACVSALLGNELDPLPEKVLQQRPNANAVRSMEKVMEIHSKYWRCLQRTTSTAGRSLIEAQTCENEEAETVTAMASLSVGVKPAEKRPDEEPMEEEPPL

effect of a mutation on the interaction	Variant
with no effect	K151A
